The record followed here is patent publication US20210363257A1 (Pieris, published 2021).

Assay [1] has as its target T1, huPD-L1-His (human PD-L1 with a C-terminal polyhistidine tag) (human, UniProt Q9NZQ7 19-239).
T1 construct: Bought; also called biotinylated huPD-L1-His
Kind of assay: ELISA, huPD-L1-His coated, detection anti-human IgG Fc-HRP. As to the method: (§1) Recombinant huPD-L1-His or cyPD-L1-His (human or cynomolgus PD-L1 with a C-terminal polyhistidine tag, R&D Systems or Sino Biologics) at the concentration of 1 μg/mL in PBS was coated overnight on microtiter plates at 4° C. After washing with PBS-0.05% T (PBS supplemented with 0.05% (v/v) Tween 20), the plates were blocked with 2% BSA (w/v) in PBS-0.1% T (PBS supplemented with 0.1% (v/v) Tween 20) for 1 h at room temperature. […] Bound molecules under study were detected by incubation with 1:5000 diluted anti-human IgG Fc-HRP (Jackson Laboratory) in PBS-0.1% T-2% BSA. After an additional wash step, fluorogenic HRP substrate (QuantaBlu, Thermo) was added to each well and the fluorescence intensity was detected using a fluorescence microplate reader.

In assay [2] the target is T2, cynomolgus CD137 expressed on cells (cynomolgus, UniProt A9YYE7 24-254).
T2 construct: also called Flp-In-CHO::cynoCD137
Kind of assay: flow cytometry, Flp-In-CHO::cynoCD137 cells. As to the method:
The geometric means of the fluorescence intensity were used to calculate EC₅₀ values using nonlinear regression (shared bottom, SLOPE=1).
5×10⁴ cells per well were incubated for 1 h in ice-cold PBS containing 5% fetal calf serum (PBS-FCS). A dilution series of the fusion proteins and control antibodies were added to the cells and incubated for 1 h on ice. Cells were washed twice with PBS and then incubated with a goat anti-hIgG Alexa647-labeled antibody for 30 min on ice. Cells were subsequently washed and analyzed using iQue Flow cytometer (Intellicyte Screener). Mean geometric fluorescent signals were plotted and fitted with Graphpad software using nonlinear regression (shared bottom, SLOPE=1).
(In general: A flow cytometer gives signals particle by particle.)

The target in assay [3] is T1, huPD-L1-His (human PD-L1 with a …). In words: dual-binding ELISA, huPD-L1-His coated, binder titrated, detection with biotinylated huCD137-His. As to the method: (§2) Recombinant huPD-L1-His (R&D Systems) in PBS (1 μg/mL) was coated overnight on microtiter plates at 4° C. The plates were washed five times after each incubation step with 100 μL PBS-0.05% T. The plates were blocked with 2% BSA (w/v) in PBS-0.1% T for 1 h at room temperature and subsequently washed again. Different concentrations of tested fusion proteins were added to the wells and incubated for 1 h at room temperature, followed by a wash step. […] After washing, a 1:5000 dilution of ExtrAvidin-HRP (Sigma-Aldrich) in PBS-0.1% T-2% BSA was added to the wells and incubated for 1 h. After an additional wash step, fluorogenic HRP substrate (QuantaBlu, Thermo) was added to each well, and the fluorescence intensity was detected using a fluorescence microplate reader.
Background: ELISA stands for enzyme-linked immunosorbent assay.

Assay [4] concerns the target T3, huCD137-His (human CD137 with a C-terminal polyhistidine tag) (human, UniProt Q07011 24-186).
T3 construct: Bought; also called huCD137-His-Bio
Kind of assay: SPR (Biacore), binder captured by anti-human IgG Fc, huCD137-His in solution, 25 C, 1:1 model. On the procedure: (§3) The binding kinetics and affinity of exemplary fusion proteins to huPD-L1-His or huCD137-His (human PD-L1 or human CD137 with a C-terminal polyhistidine tag, R&D Systems) were determined by surface plasmon resonance (SPR) using a Biacore 8K or a Biacore T200 (GE Healthcare).
(§4) The anti-human IgG Fc antibody (GE Healthcare) was immobilized on a CM5 sensor chip using standard amine chemistry: the carboxyl groups on the chip were activated using 1-ethyl-3-(3-dimethylaminopropyl)-carbodiimide (EDC) and N-hydroxysuccinimide (NHS). Subsequently, anti-human IgG Fc antibody solution (GE Healthcare) at a concentration of 25 μg/mL in 10 mM sodium acetate (pH 5.0) was applied at a flow rate of 5 μL/min until an immobilization level of 6000-10000 resonance units (RU) was achieved. Residual non-reacted NHS-esters were blocked by passing a solution of 1M ethanolamine across the surface. The reference channel was treated in an analogous manner. […] After each capture step, the needle was washed.
(§5) Double referencing was used and the 1:1 binding model was used to fit the raw data.
In general terms: SPR reads the build-up and loss of mass on a sensor chip optically.

In assay [5] the target is T1, huPD-L1-His (human PD-L1 with a …). Kind of assay: SPR (Biacore), binder captured by anti-human IgG Fc, huPD-L1-His in solution, 25 C, 1:1 model. As to the method:
as §3, §4, §5

The target in assay [6] is T4, cyPD-L1-His (cynomolgus PD-L1 with a C-terminal polyhistidine tag) (cynomolgus).
T4 construct: Bought
In words: ELISA, cyPD-L1-His coated, detection anti-human IgG Fc-HRP. On the procedure: as §1

The target of assay [7] is T1, huPD-L1-His (human PD-L1 with a …). In words: dual-binding ELISA, huPD-L1-His coated, binder titrated, detection with biotinylated huCD137-His; PD-L1 capture, CD137 detection (simultaneous binding of both targets). As to the method: as §2
For assay [8], the target named is human PD-L1 expressed on cells (human, UniProt Q9NZQ7 19-290). In words: cell-based or functional assay.
Sequence of human PD-L1 expressed on cells (Q9NZQ7 19-290): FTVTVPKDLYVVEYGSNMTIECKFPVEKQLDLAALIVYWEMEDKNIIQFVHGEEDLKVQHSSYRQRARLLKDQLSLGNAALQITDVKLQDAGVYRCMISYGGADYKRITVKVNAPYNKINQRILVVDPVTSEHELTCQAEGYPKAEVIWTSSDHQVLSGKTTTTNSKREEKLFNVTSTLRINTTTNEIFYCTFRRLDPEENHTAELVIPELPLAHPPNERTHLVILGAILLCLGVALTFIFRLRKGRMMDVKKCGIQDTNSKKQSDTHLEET

T3 sequence (Q07011 24-186 limits assumed): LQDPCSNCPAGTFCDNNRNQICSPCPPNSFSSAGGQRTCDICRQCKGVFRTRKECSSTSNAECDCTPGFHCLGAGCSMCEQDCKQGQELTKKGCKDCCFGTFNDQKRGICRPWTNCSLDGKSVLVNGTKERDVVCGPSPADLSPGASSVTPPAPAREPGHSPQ
T1 sequence (Q9NZQ7 19-239 limits assumed): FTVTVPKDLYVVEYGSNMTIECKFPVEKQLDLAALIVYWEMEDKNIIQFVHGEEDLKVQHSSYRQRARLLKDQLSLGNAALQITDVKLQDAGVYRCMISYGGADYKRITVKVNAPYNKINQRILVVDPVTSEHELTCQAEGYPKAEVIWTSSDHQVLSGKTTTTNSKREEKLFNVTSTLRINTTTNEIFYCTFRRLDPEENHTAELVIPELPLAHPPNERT
T2 sequence (A9YYE7 entry or part of it limits assumed): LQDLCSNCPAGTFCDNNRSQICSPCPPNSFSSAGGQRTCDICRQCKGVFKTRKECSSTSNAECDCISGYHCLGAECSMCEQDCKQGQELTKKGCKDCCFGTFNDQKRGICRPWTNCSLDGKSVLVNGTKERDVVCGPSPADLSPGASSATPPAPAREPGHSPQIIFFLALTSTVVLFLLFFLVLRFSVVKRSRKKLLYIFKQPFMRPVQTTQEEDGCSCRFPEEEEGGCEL

B1: fusion protein SEQ ID NOs: 86 and 91 (bispecific antibody, human IgG4 S228P, kappa, F234A L235A)
heavy: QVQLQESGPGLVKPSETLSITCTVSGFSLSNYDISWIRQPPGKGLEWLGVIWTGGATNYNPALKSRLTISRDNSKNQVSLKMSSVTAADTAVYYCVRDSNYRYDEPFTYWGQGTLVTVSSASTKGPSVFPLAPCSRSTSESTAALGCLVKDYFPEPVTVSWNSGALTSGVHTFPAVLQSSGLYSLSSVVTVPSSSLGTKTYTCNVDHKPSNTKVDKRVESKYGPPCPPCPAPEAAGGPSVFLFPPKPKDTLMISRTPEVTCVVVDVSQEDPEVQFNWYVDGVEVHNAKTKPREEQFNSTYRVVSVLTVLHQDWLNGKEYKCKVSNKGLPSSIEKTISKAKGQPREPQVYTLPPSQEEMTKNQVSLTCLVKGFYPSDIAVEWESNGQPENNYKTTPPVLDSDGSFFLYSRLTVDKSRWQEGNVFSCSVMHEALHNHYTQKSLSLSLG
light: EIVLTQSPDTLSVTPKEKVTLTCRASQSIGTNIHWFQQKPGQSPKLLIKYASESISGVPSRFSGSGSGTDFTLTINSVEAEDAATYYCQQSNSWPYTFGQGTKLEIKRTVAAPSVFIFPPSDEQLKSGTASVVCLLNNFYPREAKVQWKVDNALQSGNSQESVTEQDSKDSTYSLSSTLTLSKADYEKHKVYACEVTHQGLSSPVTKSFNRGECGGGGSGGGGSGGGGSQDSTSDLIPAPPLSKVPLQQNFQDNQFHGKWYVVGQAGNIRLREDKDPIKMMATIYELKEDKSYDVTMVKFDDKKCMYDIWTFVPGSQPGEFTLGKIKSFPGHTSSLVRVVSTNYNQHAMVFFKFVFQNREEFYITLYGRTKELTSELKENFIRFSKSLGLPENHIVFPVPIDQCIDG
notes: Antibody-lipocalin mutein fusion, IgG4 S228P backbone; Bivalent to CD137
What is called EC50 is the midpoint of the concentration-response curve. A higher EC50 goes with weaker potency. The term Kd denotes the free concentration of one partner at which half of the binding sites on the other are occupied at equilibrium, for simple one-to-one binding. High values mean lower affinity, low ones higher affinity. As a reminder, the koff is a measure of how fast the partners let go of each other. High values mean fast dissociation, low ones slow dissociation. As usually defined, the kon is the rate constant with which the complex forms. A high value points to fast association. Regarding B1, the EC50 turned out to be 0.23 nM in assay [1], 39.1 nM in assay [2], 0.59 nM in assay [3] and 0.18 nM in assay [6]. In addition, the Kd in assay [4] came out at 5.11 nM; in assay [5], 0.568 nM. In addition, the koff came to 0.000175 s⁻¹ in assay [4] and 0.000748 s⁻¹ in assay [5]. The kon in assay [4] was 34200 M⁻¹ s⁻¹; in assay [5], 1.32e+06 M⁻¹ s⁻¹.

B2: fusion protein SEQ ID NOs: 90 and 87 (bispecific antibody, human IgG4 S228P, kappa, F234A L235A)
heavy: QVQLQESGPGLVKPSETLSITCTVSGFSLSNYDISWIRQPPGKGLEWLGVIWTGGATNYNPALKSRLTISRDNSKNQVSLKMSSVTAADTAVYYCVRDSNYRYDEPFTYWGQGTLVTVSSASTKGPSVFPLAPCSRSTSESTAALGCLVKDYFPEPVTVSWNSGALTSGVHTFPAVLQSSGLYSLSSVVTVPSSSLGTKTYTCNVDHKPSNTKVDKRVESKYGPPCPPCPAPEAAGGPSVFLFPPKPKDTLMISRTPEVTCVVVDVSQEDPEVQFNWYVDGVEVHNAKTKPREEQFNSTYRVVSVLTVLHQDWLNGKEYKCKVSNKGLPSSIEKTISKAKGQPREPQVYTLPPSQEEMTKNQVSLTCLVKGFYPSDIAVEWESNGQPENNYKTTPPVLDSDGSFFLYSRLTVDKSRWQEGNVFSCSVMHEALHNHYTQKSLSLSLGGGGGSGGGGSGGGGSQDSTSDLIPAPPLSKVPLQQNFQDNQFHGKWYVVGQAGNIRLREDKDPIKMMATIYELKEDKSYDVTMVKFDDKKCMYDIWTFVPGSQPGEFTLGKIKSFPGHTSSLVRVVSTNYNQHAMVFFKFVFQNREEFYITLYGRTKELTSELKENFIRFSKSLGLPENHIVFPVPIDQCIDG
light: EIVLTQSPDTLSVTPKEKVTLTCRASQSIGTNIHWFQQKPGQSPKLLIKYASESISGVPSRFSGSGSGTDFTLTINSVEAEDAATYYCQQSNSWPYTFGQGTKLEIKRTVAAPSVFIFPPSDEQLKSGTASVVCLLNNFYPREAKVQWKVDNALQSGNSQESVTEQDSKDSTYSLSSTLTLSKADYEKHKVYACEVTHQGLSSPVTKSFNRGEC
notes: Bivalent to CD137
For B2, the EC50 in assay [7] turned out to be 0.58 nM; in assay [1] it was 0.15 nM; in assay [2] it was 51.4 nM; in assay [6], 0.13 nM. In addition, the values for the Kd in assay [4] and in assay [5] were 6.48 nM and 0.592 nM, respectively. Besides, the koff in assay [4] is 0.000255 s⁻¹; in assay [5], 0.000769 s⁻¹. Further, the kon in assay [4] is 39300 M⁻¹ s⁻¹; in assay [5] it was 1.3e+06 M⁻¹ s⁻¹. In addition, the “EC50 [nM] (PD-1/PD-L1 blockade bioassay, NFAT-RE-mediated luminescence)” value in assay [8] amounted to 0.49 nM.
